Reference: the supplement of paper PMC7125110
± gives the standard error. For some of these results: This sample holds only a part of the variants without activity.

B1: glmS ribozyme (parent)
chain: AUAAAAGCGCCAGAACUACAGAAAUGUAGUUGACGAGGAGGAGGUUUAUCGAAUUUUCGGCGGAUGCCUCCAAA

Assays:
Details in all cases: with glucosamine-6-phosphate
glucosamine-6-phosphate [1] = variants of: B1; assay: kcat; higher = faster cleavage; RNA array
Summary of the method: (§1)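 Tiles bearing barcoded ribozyme variants, transcribed in situ by E. coli RNA polymerase on sequenced MiSeq chips, were imaged over ~14 h at 37 °C using a hybridised Cy3 probe. Glucosamine-6-phosphate was supplied at 40 μM to 10 mM in HEPES/KCl/Mg(OAc)2 buffer. kobs came from one- or two-exponential decay fits to normalised per-tile medians, and weighted Michaelis–Menten fits then provided kcat and KM.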

glucosamine-6-phosphate [2] = variants of: B1; assay: self-cleavage kobs at 40 uM GlcN6P; higher = faster cleavage; RNA array
Summary of the method: as §1

glucosamine-6-phosphate [3] = variants of: B1; assay: self-cleavage kobs at 160 uM GlcN6P; higher = faster cleavage; RNA array
Summary of the method: as §1

glucosamine-6-phosphate [4] = variants of: B1; assay: self-cleavage kobs at 640 uM GlcN6P; higher = faster cleavage; RNA array
Summary of the method: as §1

glucosamine-6-phosphate [5] = variants of: B1; assay: self-cleavage kobs at 2500 uM GlcN6P; higher = faster cleavage; RNA array
Summary of the method: as §1

glucosamine-6-phosphate [6] = variants of: B1; assay: self-cleavage kobs at 10000 uM GlcN6P; higher = faster cleavage; RNA array
Summary of the method: as §1

glucosamine-6-phosphate [7] = variants of: B1; assay: KM; higher = weaker cofactor use; RNA array
Summary of the method: as §1

Row | Variant | kcat (glucosamine-6-phosphate [1]) [s⁻¹] | self-cleavage kobs at 40 uM GlcN6P (glucosamine-6-phosphate [2]) [s⁻¹] | self-cleavage kobs at 160 uM GlcN6P (glucosamine-6-phosphate [3]) [s⁻¹] | self-cleavage kobs at 640 uM GlcN6P (glucosamine-6-phosphate [4]) [s⁻¹] | self-cleavage kobs at 2500 uM GlcN6P (glucosamine-6-phosphate [5]) [s⁻¹] | self-cleavage kobs at 10000 uM GlcN6P (glucosamine-6-phosphate [6]) [s⁻¹] | KM (glucosamine-6-phosphate [7]) [µM]
1 | A14U U49C | < 1e-05 | < 1e-05 | < 1e-05 |  |  |  | 
2 | A39U U54C | 0.0342 ± 0.014 | 0.000447 ± 5e-05 |  | 0.00436 ± 0.00054 | 0.00989 ± 0.0032 | 0.0285 ± 0.0042 | 
3 | U55C C68U | 3.04e-05 ± 1.7e-06 |  |  |  |  | 2.9e-05 ± 9.1e-06 | 
4 | C16G C67U | 0.000669 ± 7.7e-05 | 4.87e-05 ± 9.4e-06 | 0.000106 ± 1.5e-05 | 0.000318 ± 3.4e-05 | 0.000504 ± 6.2e-05 | 0.000642 ± 8.6e-05 | 736 ± 160
5 | A14C U56A | 0.00449 ± 0.0013 | 7.03e-05 ± 9e-06 | 0.000133 ± 2.8e-05 | 0.000559 ± 6.3e-05 | 0.00196 ± 0.00028 | 0.00318 ± 0.00032 | 3990 ± 1600
6 | A6G U56G U69G | 1.41e-05 ± 3e-06 |  |  |  |  |  | 
7 | U30A C50U | 1.13e-05 ± 4.2e-06 |  |  |  |  |  | 
8 | A53G U57G | 5.45e-05 ± 1.2e-06 |  |  |  | 3.07e-05 ± 1.4e-05 | 4.6e-05 ± 8.2e-06 | 1880 ± 180
9 | C10G A12C | 3.86e-05 ± 1.4e-05 |  |  |  |  | 2.24e-05 ± 9.4e-06 | 
10 | U47G U49A | 1.31e-05 ± 3.3e-06 |  |  |  |  |  | 
11 | A42G U46C | 0.00159 ± 0.00025 | 5.01e-05 ± 1.5e-05 | 0.000237 ± 4.5e-05 | 0.000597 ± 9.9e-05 | 0.00137 ± 0.00023 | 0.00122 ± 0.00028 | 1020 ± 260
12 | A33U U69C | 7.22e-05 ± 1.2e-06 |  |  |  | 5.12e-05 ± 1.2e-05 | 6.49e-05 ± 9.5e-06 | 1080 ± 92
13 | G32C G37C | < 1e-05 | < 1e-05 |  |  |  | < 1e-05 | 
14 | A53C G59U | < 1e-05 |  |  |  |  |  | 
15 | A6U G13C C70G | 2.43e-05 ± 8.6e-06 |  |  |  |  |  | 
16 | U47G A53G U57C C68U | 9.73e-05 ± 3.2e-05 |  |  | 3.09e-05 ± 1.2e-05 | 3.84e-05 ± 1.3e-05 | 8.44e-05 ± 1.8e-05 | 
17 | C16G U30A U65G | 0.000143 ± 7.4e-06 |  |  |  | 5.44e-05 ± 2e-05 | 0.000101 ± 2.1e-05 | 4140 ± 530
18 | A6U U56G | 0.000121 ± 1.2e-05 |  |  | 3.35e-05 ± 1.5e-05 | 9.43e-05 ± 1.2e-05 | 0.000104 ± 1.1e-05 | 1090 ± 430
19 | A14U G59U | < 1e-05 |  | < 1e-05 |  | < 1e-05 |  | 

Row | Variant | kcat (glucosamine-6-phosphate [1]) [s⁻¹] | self-cleavage kobs at 40 uM GlcN6P (glucosamine-6-phosphate [2]) [s⁻¹] | self-cleavage kobs at 160 uM GlcN6P (glucosamine-6-phosphate [3]) [s⁻¹] | self-cleavage kobs at 640 uM GlcN6P (glucosamine-6-phosphate [4]) [s⁻¹] | self-cleavage kobs at 2500 uM GlcN6P (glucosamine-6-phosphate [5]) [s⁻¹] | self-cleavage kobs at 10000 uM GlcN6P (glucosamine-6-phosphate [6]) [s⁻¹] | KM (glucosamine-6-phosphate [7]) [µM]
20 | C11U A36C | < 1e-05 | < 1e-05 | < 1e-05 |  |  | < 1e-05 | 
21 | A14G A39C | 0.0183 ± 0.0021 | 0.000225 ± 3.6e-05 | 0.000699 ± 0.00017 | 0.00281 ± 0.00047 | 0.00921 ± 0.0025 | 0.0134 ± 0.0019 | 3470 ± 520
22 | G43A U56A | 1.8e-05 ± 3.9e-06 |  |  |  |  |  | 
23 | A39G G40U U55C C71A | 0.00728 ± 0.0021 | 0.000207 ± 4.1e-05 | 0.000368 ± 8.6e-05 | 0.00178 ± 0.00043 | 0.00448 ± 0.00083 | 0.00562 ± 0.001 | 2200 ± 930
24 | C71G | 0.0034 ± 0.00063 | 0.000157 ± 1.8e-05 | 0.00041 ± 3.6e-05 | 0.000926 ± 4.6e-05 | 0.00218 ± 0.00013 | 0.00313 ± 0.00019 | 1460 ± 470
25 | G37U C71A | 1.95e-05 ± 4.6e-06 |  |  |  |  |  | 
26 | G37A U47C | 0.000634 ± 0.00022 |  | 8.31e-05 ± 2.2e-05 | 0.000181 ± 3.8e-05 | 0.000398 ± 7.7e-05 | 0.00103 ± 0.00045 | 
27 | A12C A39U | 0.0119 ± 0.0024 | 0.000239 ± 1.9e-05 | 0.000824 ± 9.8e-05 | 0.00219 ± 0.00025 | 0.00569 ± 0.00066 | 0.0112 ± 0.0011 | 2230 ± 600
28 | C58A U65C | 6.66e-05 ± 7.6e-06 |  |  |  |  | 4.42e-05 ± 2.2e-05 | 5030 ± 1300
29 | A15U C50U | 2.32e-05 ± 2.6e-06 |  |  |  |  |  | 
30 | A6U U31C | 3.19e-05 ± 7.8e-07 |  |  |  |  | 2.97e-05 ± 1.2e-05 | 647 ± 96
31 | A12G C67G C68A | 6.18e-05 ± 2.3e-05 |  | 6.68e-05 ± 1.8e-05 | 0.000113 ± 2.6e-05 | 6.87e-05 ± 1.8e-05 |  | 
32 | U47A U65G U69C | 0.00209 ± 0.00057 |  | 0.000128 ± 3.1e-05 |  | 0.00114 ± 0.00024 | 0.00154 ± 0.0005 | 2700 ± 1100
33 | A52G A64C C70A | 1.92e-05 ± 6.2e-06 |  |  |  |  |  | 
34 | C58G C71G | 2.97e-05 ± 5.4e-06 |  |  | 3.12e-05 ± 1.3e-05 | 3.56e-05 ± 1.5e-05 |  | 
35 | A12C U45A | 0.0415 ± 0.0022 | 0.000958 ± 0.00019 | 0.00352 ± 0.00099 | 0.0118 ± 0.003 | 0.0233 ± 0.0073 | 0.037 ± 0.013 | 1690 ± 110
36 | G63U C68G | 1.09e-05 ± 2.8e-06 | < 1e-05 |  |  | < 1e-05 |  | 
37 | A42U C71U | 0.000154 ± 2e-05 | < 1e-05 |  | 4.75e-05 ± 6.4e-06 | 0.000122 ± 1.6e-05 | 0.000129 ± 1.4e-05 | 1320 ± 400
38 | U54C C71G | 0.00083 ± 0.00027 |  | 0.000132 ± 5.7e-05 | 0.000424 ± 0.00013 | 0.000351 ± 0.00011 | 0.00091 ± 0.00016 | 
